Literature values as cited in PMC9133541.

Molecular target: ExoS peptide (Pseudomonas aeruginosa) (UniProt G3XDA1)
Experiment: ITC

UniProt G3XDA1, sequence (G3XDA1 whole entry): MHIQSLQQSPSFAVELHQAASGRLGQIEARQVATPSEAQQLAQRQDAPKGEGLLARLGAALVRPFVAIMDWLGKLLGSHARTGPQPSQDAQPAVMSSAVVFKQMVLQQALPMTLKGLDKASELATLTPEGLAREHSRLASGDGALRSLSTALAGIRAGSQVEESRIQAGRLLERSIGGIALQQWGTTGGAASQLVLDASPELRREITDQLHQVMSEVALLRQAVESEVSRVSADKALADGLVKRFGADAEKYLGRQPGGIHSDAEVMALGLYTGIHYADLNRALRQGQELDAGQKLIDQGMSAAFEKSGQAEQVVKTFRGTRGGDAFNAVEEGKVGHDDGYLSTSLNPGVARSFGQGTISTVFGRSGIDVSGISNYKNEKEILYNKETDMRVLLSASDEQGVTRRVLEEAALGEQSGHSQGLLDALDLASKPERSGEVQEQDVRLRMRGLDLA

Substance: 14-3-3 sigma (from UniProt P31947)
- Kd: 45.6 µM
